Laboratory results published in paper doi:10.1101/2025.07.06.663161 (bioRxiv, 2025).
Where a chain is given by its changes, count along the chain named. Numbers in names are those of the source.

B1: Recombinant wild-type Cdc19, Strep-tagged (SUMO tag cleaved off) (natural protein)
chain: MSRLERLTSLNVVAGSDLRRTSIIGTIGPKTNNPETLVALRKAGLNIVRMNFSHGSYEYHKSVIDNARKSEELYPGRPLAIALDTKGPEIRTGTTTNDVDYPIPPNHEMIFTTDDKYAKACDDKIMYVDYKNITKVISAGRIIYVDDGVLSFQVLEVVDDKTLKVKALNAGKICSHKGVNLPGTDVDLPALSEKDKEDLRFGVKNGVHMVFASFIRTANDVLTIREVLGEQGKDVKIIVKIENQQGVNNFDEILKVTDGVMVARGDLGIEIPAPEVLAVQKKLIAKSNLAGKPVICATQMLESMTYNPRPTRAEVSDVGNAILDGADCVMLSGETAKGNYPINAVTTMAETAVIAEQAIAYLPNYDDMRNCTPKPTSTTETVAASAVAAVFEQKAKAIIVLSTSGTTPRLVSKYRPNCPIILVTRCPRAARFSHLYRGVFPFVFEKEPVSDWTDDVEARINFGIEKAKEFGILKKGDTYVSIQGFKAGAGHSNTLQVSTV
B2: Recombinant phosphomimicking Cdc19-3E (S56E, S70E, S175E), Strep-tagged (SUMO tag cleaved off) (natural protein)
chain: B1 chain with S56E, S70E, S175E

Target: the molecule itself
Test: atomic force microscopy

Row | Protein | binding result
1 | B1 | binds
2 | B2 | binds
